B1: SMOC2 (parent)
chain: DCAGSPQKPLCASDGRTFLSRCEF

Variants of: B1
Assay: protein stability index of a GFP-peptide fusion (GPS, HEK-293T) (PSI 1-6); higher = more stable
Settings: c terminus: a fixed tail appended
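Note: lentivirally expressed fusions sorted by FACS into six bins by GFP to DsRed ratio, PSI derived from sequencing read proportions per bin multiplied by bin number.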

Protein stability index: each site, then its substitutions
C11: N 2.67; R 2.28; T 2.48; D 3.79; E 3.46
K8: L 2.41; Q 2.77; D 3.33; N 2.3; I 2.68; G 2.94; V 2.13; S 2.34; M 2.23; H 2.48; W 2.46; F 3.62; E 2.17; T 2.69; Y 1.9; C 2.18; R 2.83
D1: P 2.66; E 3.69; L 2.85; T 2.59; Y 1.72; K 2.59; N 2.2; R 1.55; I 2.92; H 2.02; A 1.89; G 2.38; M 1.7; V 2.35; F 1.5; S 1.93
Q7: G 2.88; E 1.81; K 3.04; D 2.94; V 2.39; I 1.83; M 2.73; H 2.1; W 2.55; A 2.51; T 2.46; R 3.06; Y 2.36; C 2.26; L 2.11; F 1.75; N 1.96
T17: A 2.83
S13: G 2.08; F 1.7; R 2.34; M 2.3; C 2.16; I 3.88; V 2.61; D 3.16; T 2.91; L 2.07; W 2.09; A 3.39; K 2.39; N 2.82; H 2.29; E 3.25; P 1.9; Q 2.58; Y 2.25
P6: Y 2.62; G 2.62; L 2.18; F 1.76; D 2.46; C 2.14; N 2.66; I 2.34
